Molecular target: the molecule itself
Assay: SEC; […] (20 mM HEPES, 150 mM NaCl pH 7.2), room temperature; […]

B1: Hendra virus W protein (W^HeV), wild type (natural protein)
chain: MDKLDLVNDGLDIIDFIQKNQKEIQKTYGRSSIQQPSTKDRTRAWEDFLQSTSGEHEQAEGGMPKNDGGTEGRNVEDLSSVTSSDGTIGQRVSNTRAWAEDPDDIQLDPMVTDVVYHDHGGECTGHGPSSSPERGWSYHMSGTHDGNVRAVPDTKVLPNAPKTTVPEEVREIDLIGLEDKFASAGLNPAAVPFVPKNQSTPTEEPPVIPEYYYGSGRRGDLSKSPPRGNVNLDSIKIYTSDDEDENQLEYEDEFAKSSSEVVIDTTPEDNDSINQEEVVGDPSDQGLEHPFPLGKFPEKEETPDVRRKDSLMQDSCKRGGVPKRLPMLSEEFECSGSDDPIIQELEREGSHPGGSLRLREPPQSSGNSRNQPDRQLKTGDAASPGGVQRPGTPMPKSRIMPIKKGAQTRSLNMLGRKTCLGRRVVQPGMFADYPPTKKARVLLRRMSN
  binding result: binds
